Reference: paper doi:10.1101/2020.12.21.423864

Biological target: Cadherin-11 extracellular domain 1 (Cad11-EC1), wild type, residues 1-98
Test: NMR

“Cadherin-11 extracellular domain 1 (Cad11-EC1), wild type, residues 1-98 (domain or fragment)” gave a stoichiometry N of 2.
